The target of data set [1] is T1, cGKIα-CBRC (proteinkinase G isoform Iα fused at its C-terminus to the C-terminal fragment of click beetle red … (UniProt P00516 1-671)).
T1 construct: cGMP-dependent protein kinase I, alpha isoform (cGKIα, PKGIα); also called PKGIα; cGMP dependent kinase Iα; source: COS-7 cells, calcium phosphate transfection, in living cells; not shown: CBRC (click beetle red luciferase aa 395-542; joined by a 17-residue Gly/Ser linker), C-terminal, kept
T1 sequence (looked up): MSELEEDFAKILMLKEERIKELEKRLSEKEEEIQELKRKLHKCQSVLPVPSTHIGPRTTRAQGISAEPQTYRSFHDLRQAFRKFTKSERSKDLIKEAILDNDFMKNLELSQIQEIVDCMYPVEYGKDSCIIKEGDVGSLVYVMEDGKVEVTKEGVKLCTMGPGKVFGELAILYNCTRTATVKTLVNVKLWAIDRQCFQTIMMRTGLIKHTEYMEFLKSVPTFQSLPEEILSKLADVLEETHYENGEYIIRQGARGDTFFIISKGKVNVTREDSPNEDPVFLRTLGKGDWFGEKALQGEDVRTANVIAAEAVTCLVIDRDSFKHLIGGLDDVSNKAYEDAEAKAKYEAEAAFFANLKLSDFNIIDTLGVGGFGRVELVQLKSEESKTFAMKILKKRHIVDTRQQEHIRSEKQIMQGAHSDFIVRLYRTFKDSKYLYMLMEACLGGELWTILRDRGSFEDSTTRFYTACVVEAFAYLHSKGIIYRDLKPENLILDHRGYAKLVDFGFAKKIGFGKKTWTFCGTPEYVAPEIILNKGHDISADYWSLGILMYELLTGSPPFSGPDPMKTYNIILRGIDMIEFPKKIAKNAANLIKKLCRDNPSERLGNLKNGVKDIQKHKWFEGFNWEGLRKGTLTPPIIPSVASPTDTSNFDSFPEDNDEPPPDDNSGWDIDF
Put plainly: split reporter (BiFC, NanoBiT); click beetle red luciferase complementation (CBRN/CBRC) in co-transfected COS-7 cells, 15 µg DNA, vector ratios 1:25 to 1:100 (mostly 1:50); cells untreated or stimulated for 24 h with 8-Br-cGMP (0.5-2.5 mM), 8-pCPT-cGMP (100-500 µM) or 8-Br-cAMP (0.125-1 mM); Bright-Glo reagent, plate reader, RLU. The conditions noted are these: partners not purified.

Data set [2] concerns the molecule itself. Put plainly: Western blot of monomer and dimer under non-reducing conditions; primary mesangial cells, control or stimulated with H2O2, non-reducing conditions (Figure S3). Background: Immunoblotting shows a protein as a band on a membrane.

Where a chain is given by its changes, count along the chain named.

These results are taken from article PMC5979328, “Establishing a Split Luciferase Assay for Proteinkinase G (PKG) Interaction Studies” (International Journal of Molecular Sciences, 2018).

B1: CBRN-RGS2 (regulator of G-protein signaling 2 fused at its N-terminus to the N-terminal fragment of click beetle red luciferase) (natural protein, UniProt P41220 1-211, looked up)
chain: MQSAMFLAVQHDCRPMDKSAGSGHKSEEKREKMKRTLLKDWKTRLSYFLQNSSTPGKPKTGKKSKQQAFIKPSPEEAQLWSEAFDELLASKYGLAAFRAFLKSEFCEENIEFWLACEDFKKTKSPQKLSSKARKIYTDFIEKEAPKEINIDFQTKTLIAQNIQEATSGCFTTAQKRVYSLMENNSYPRFLESEFYQDLCKKPQITTEPHAT
notes: regulator of G-protein signaling 2 (RGS2); cDNA from pCMV6_RGS2 (OriGene); source: COS-7 cells, calcium phosphate transfection, in living cells; not shown: CBRN (click beetle red luciferase aa 1-416; joined by a 17-residue Gly/Ser linker), N-terminal, kept
On to B1, for which, in data set [1], the “fold signal amplification (100 µM 8-pCPT-cGMP, treated/untreated)” value is 3.5 fold; the “fold signal amplification (200 µM 8-pCPT-cGMP, treated/untreated)” value is 3.8 fold; the “fold signal amplification (0.5 mM 8-Br-cGMP, treated/untreated)” value amounted to 2.2 fold; the “fold signal amplification (500 µM 8-pCPT-cGMP, treated/untreated)” value worked out at 3.9 fold. For the same molecule, in data set [1], the “fold signal amplification (1 mM 8-Br-cGMP, 24 h, against basal luminescence)” value is ~3.5 fold; the “fold signal amplification (1 mM 8-Br-cGMP, treated/untreated)” value was found to be 3.6 fold; the “fold signal amplification (2.5 mM 8-Br-cGMP, treated/untreated)” value came to 2.8 fold.

B2: cGKIα in primary mesangial cells (enzyme, UniProt P0C605 1-671, looked up)
chain: T1 sequence (looked up) with E227D, K265Q, N275S, N656S
notes: cGMP-dependent protein kinase I, alpha isoform, in primary mesangial cells; also called the kinase; PKGIα
For the molecule B2, the stoichiometry N (commonly a count of units in the complex or per binding partner) in data set [2] was found to be 2.
